± gives the half width of the 95% confidence interval.
Assay: folding stability dG unfold from chymotrypsin proteolysis; higher = more stable
Procedure, shortened: (§1)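 Mini-proteins designed to be under 80 residues and free of cysteine were carried in a PA-tagged cDNA display construct and digested with trypsin and with chymotrypsin. Each protease was applied at 11 threefold-diluted concentrations, alongside a no-protease condition, before sequencing. K50 came from Bayesian fitting of the sequencing counts, and unfolding free energy was obtained by comparing it with a sequence-predicted unfolded-state K50 and a shared folded-state K50, for each protease separately or for both together. Designs were retained only if their AlphaFold2 dimer inter-PAE exceeded 15.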

| Sequence | folding stability dG unfold [kcal/mol] |
| --- | --- |
| SAGGSAGGEKPVVTRLELVETEEGLVRLRVELPDGELVEERRFPTLEEALAALPPGAKVEIVPLSAGGSAGG [r6_492_TrROS_Hall] | 1.54 ± 0.01 |
| SAGGKKIKVEVKIEIKIEKNPDGSYTIRIKITVKVTNENGEKFEVKVELEITLSEEELEKLKKLLEELSAGG [r13_412_TrROS_Hall] | 3.75 ± 0.46 |
| SMPRLVATPRPDGSVLVLLEAPPERPEEIAEEIRERLGVPLRVVRIEPVPERVGDRPRLRYRVLIEVDVRSA [r9_431_TrMRF] | 0.923 ± 0.12 |
| SAGRIEVYQDPNMLRVIEIPLPNGREIVIYRPPGYYHIEIENPNNNKQIPIMIPMEPGDIKKIIKEFINSAG [r5_820_TrROS] | 1.38 ± 0.081 |
| SMDFKENQSFYITEITDDEVTFIFNNKPYKFPKEFINSKDTIITIYNGKIKEIKKPKPLKLHPEEIKKLSSA [r9_842_TrMRF] | 1.43 ± 0.12 |
| SAGGSAGGSMLPLPIESIEVVPRRAPGGKTYYVAFIRLKADGKPLVIEFEADNPGEALEKLEASAGGSAGGS [r20_238_TrMRF] | 1.46 ± 0.11 |
| SAGGSAGGSAGSYPIEYIPAPPDRLWLIDPKNGKIYEIYLDPERGEYSFEEIKEFPLGLESAGGSAGGSAGG [r11_352_JUSTAS] | 1.66 ± 0.073 |
| SAGGSAMTITEDGTLTLEIKVPEDAPEATVKVTVLTDGKTLGEADPATGKVTLKVPPDVEVKVEVASAGGSA [r15_180_TrMRF] | 1.87 ± 0.045 |
| SITIKIPLKPGYPYALRIHFYNPNGKPREMDMNVTRKPDGEVEIPIKIPDKDIPPGQDIRIQSIEIYPMKSA [r9_359_TrROS] | 2.59 ± 0.1 |
| SAGMMVKVEIEFPLTLTTTEKVGTGPNGIPVFETREEIVVITFRATVPENPEEVAAAKEEAKAVAEALSSAG [r14_223_JUSTAS] | 2.08 ± 0.11 |
| PLVLRLPDGAEAVRVEFFPERNTVVAFFRAPDRLLVVEVRFEPVGGGLLAPVRVRALPVPPTPEQLRLLAES [r1_154_TrMRF] | 2.58 ± 0.089 |
| SAGGSAGGSAKPNNAELVKVTYDPETGDFYAFYKIKNTDTVYVLRFNKDGTVEVKEYKFSEASAGGSAGGSA [r18_521_TrMRF] | 3.96 ± 0.08 |
| SAGGSAMTKEEAKEYAEKRVKEEHPGWTVLGVEVTELPGKEVLTKVTVKPPENPDKTLEFEFKFPLSAGGSA [r15_627_JUSTAS] | 2.61 ± 0.035 |
| SAGGSAGGSSVEVTEDPSTGKLTVTVPPDLTSVTIKEKDKTITIPLPPGASITLPSGTVTVALSAGGSAGGS [r20_26_JUSTAS] | -0.168 ± 0.1 |
| SAGGSAGGSAGGKIKILKKNKTKEEIKKELAEKYNVKKIEIKPIKGNTYLVEIEVEPEESAGGSAGGSAGGS [r10_1219_TrMRF] | 0.634 ± 0.22 |
| SAGGSAPVTLETEFFGENGLLVRTEAVVDPATGEVTVRTETFPVITGPADNPDVVKKLLEEAGIDASAGGSA [r2_304_TrMRF] | 0.817 ± 0.094 |
| SAGGSAMITVKLEGKPVTVEILSREPKGRLVKAQAVVHRPDDGTEKTVSGLLSEEEIEKAIEEALASAGGSA [r15_944_JUSTAS] | 0.143 ± 0.11 |
| SAGGSAGMPSVPVERTVTVTVVDAEGNLVGTVTLTLTFPGGVSEEEREAAIAAAIEAAVPPAGVVSSAGGSA [r15_310_JUSTAS] | 2.26 ± 0.059 |
| SAGGSANNPKPRIIEIPIQFDWPPGDPQQMRNLAETIADEFSDPGYRVEIDEFTPDYFMFNIKIEWSAGGSA [r15_563_TrROS] | 2.937 ± 0.025 |
| SAGGSAGGSAGMPPPVVVEPKRTSVVPESGLVIIPVTVFNPANGKATLTTYLYDPATGKLVLSAGGSAGGSA [r18_228_JUSTAS] | 2.17 ± 0.058 |
| SAGGSMISTLSESVDPAKNTTYYLNLYTEGSRAYGALVTVTTDPATGTKTITTKFPALPEVTTTETVASAGG [r13_615_JUSTAS] | 0.489 ± 0.061 |

Assay: folding stability dG unfold from trypsin proteolysis; higher = more stable
Procedure, shortened: as §1

| Sequence | folding stability dG unfold [kcal/mol] |
| --- | --- |
| SAGGSAGGSAIWIPSPEAADEIMDILAKKNGYKINIEPIGQDEDGGMVYEIEIVPPGQPLTSAGGSAGGSAG [r3_59_TrROS] | 0.152 ± 0.066 |
| SAGPTVRIRFAGEEEIEVEVGEELEIRLPDGSVVRIRVKPDGTVTVTRPDGSEVELEDVDEVEIEVFPASAG [r5_869_TrROS_Hall] | 3.3 ± 0.13 |
| SAGGMKVKKIPVIVKILRKKDKKPIKEIPALAYKVDDKIYLVFEKPKDIKIAKEIAEKTGLPIEIYPSAGGS [r16_327_TrMRF] | 1.01 ± 0.025 |
| SAGGSAGGSAGKVELIETEDKLYLVVEVDGKKEVIEVSKEELEELLAALPPDAKVTILKPSAGGSAGGSAGG [r11_374_TrROS_Hall] | 3.17 ± 0.21 |
| SAGGRFYFEAKDPSITPEELRAALEEAFGVKFHRIKPVEPLPDGMLYEVEIPEIGGHFDVSAEEIEKLLSAG [r5_550_TrMRF] | 1.27 ± 0.053 |
| SAGGSAGGSAGGEKTIRITVKNENGETLEIEVSEEDAEELLKALEDAGISLEEITRIEPVSAGGSAGGSAGG [r7_745_TrROS_Hall] | 1.92 ± 0.12 |
| SAGMPPPEEVFVVKVRFDGKELTLVVRVPPGMSAEEVAKKLAEELRKKFGPDIEVEVRRVSREELLEALSAG [r5_583_TrROS_Hall] | 3.66 ± 0.13 |
| SAGGKKVVIVFDVENLTPEQIRELVRKAIESLPDPENVVIVANVTSPATVEELAELAKEHPEVKFVVGSAGG [r13_718_TrMRF] | 3.79 ± 0.11 |
| SAGGSAGGSAKIEVEVTPLPGNKVLKIIKFENGEYIIEVFYFDPETGKIYSESEIISEEELLSAGGSAGGSA [r18_325_TrMRF] | 1.3 ± 0.039 |
| SAGGMPVRVLITYESGEIPVTIPVDPNKVVEAEVELEDKTVKITVDPKAKTIKVDAPPSFKFEVLDPSAGGS [r16_761_JUSTAS] | 0.35 ± 0.13 |
| SAGGMTLTLVLEANPPEAVEVAVARLLRELGFPDELKIEIDPVGDDKGRIIYPVTIEVNVPELAEKASAGGS [r8_85_TrMRF] | 2.19 ± 0.042 |
| SAGGIIPIENASWDELLNALKEAAEKGDPNVTITFQDPGRPYWIQIDPDENNIEVEHPNGETWRFKISAGGS [r16_481_TrROS] | 0.749 ± 0.089 |
| SAGGSAGGSAGYISIMIFFVLPDGYAIMVKYTFELPPNGNPKIENIEIHVMKLPPGEPIFSAGGSAGGSAGG [r11_517_TrROS] | 4.22 ± 0.3 |
| SAGGFKEIKKKLGVKKEDKVILDLEVNFGKKPKFFKVEFEVDKLEEIVKELGIPKENLKIVKAVVIKESAGG [r13_681_TrMRF] | -0.523 ± 0.31 |
| KYELVATLSRPNPETGTVVNVSVYRFEDGSYRVLVDVSTFYRTPDGSLRTSSSRAVFLVPEDVDPRELVESS [r1_243_TrMRF] | 2.75 ± 0.039 |
| SAGGSAGGSASLSPDEEVEITDPANGTKYKVTKLPDGTVLLENPETGETYVRTDSNDWKLTSAGGSAGGSAG [r3_96_JUSTAS] | 0.88 ± 0.04 |
| SAGGSAGGSAGGSKTIEIELPGMSPEEIAAAIAEELGLDDVKITVERTEDGLLRVTIEVSAGGSAGGSAGGS [r4_408_TrROS_Hall] | 1.57 ± 0.057 |
| SAKKYIIRVKVKINGKEYEIEIEADSLEEALAKLKEELKKLFPGEKIEEVKIEVYDAKTGEKKEITLKLSAG [r14_54_TrROS_Hall] | 2.76 ± 0.12 |
| SAGGSAGGMVLRITLPNGEVIEIPLEELGLSEEERKRRLAELLAEELRKLFPGKEIKVEVVELPSAGGSAGG [r6_164_TrROS_Hall] | 3.54 ± 0.08 |
| SAGGSAGGSNKPVYFRAKIRNPDGKPIGEIEIPAKFDSLEDARSFAENLAKDLPGYKVEIELVSAGGSAGGS [r20_201_TrROS] | 2.061 ± 0.012 |
| SAGGMKIEKIFSSEEEAKAAAEKIKNETPEGKELKIEISKIPLKENLPPESPEILDEERYIVKVELPSAGGS [r16_795_JUSTAS] | 0.816 ± 0.078 |

| Sequence | folding stability dG unfold [kcal/mol] |
| --- | --- |
| SAGGSAGGEKPVVTRLELVETEEGLVRLRVELPDGELVEERRFPTLEEALAALPPGAKVEIVPLSAGGSAGG [r6_492_TrROS_Hall] | 1.85 ± 0.032 |
| SAGGKKIKVEVKIEIKIEKNPDGSYTIRIKITVKVTNENGEKFEVKVELEITLSEEELEKLKKLLEELSAGG [r13_412_TrROS_Hall] | 3.07 ± 0.24 |
| SMPRLVATPRPDGSVLVLLEAPPERPEEIAEEIRERLGVPLRVVRIEPVPERVGDRPRLRYRVLIEVDVRSA [r9_431_TrMRF] | 0.96 ± 0.077 |
| SAGRIEVYQDPNMLRVIEIPLPNGREIVIYRPPGYYHIEIENPNNNKQIPIMIPMEPGDIKKIIKEFINSAG [r5_820_TrROS] | 1.18 ± 0.046 |
| SMDFKENQSFYITEITDDEVTFIFNNKPYKFPKEFINSKDTIITIYNGKIKEIKKPKPLKLHPEEIKKLSSA [r9_842_TrMRF] | 0.519 ± 0.17 |
| SAGGSAGGSMLPLPIESIEVVPRRAPGGKTYYVAFIRLKADGKPLVIEFEADNPGEALEKLEASAGGSAGGS [r20_238_TrMRF] | 1.14 ± 0.046 |
| SAGGSAGGSAGSYPIEYIPAPPDRLWLIDPKNGKIYEIYLDPERGEYSFEEIKEFPLGLESAGGSAGGSAGG [r11_352_JUSTAS] | 1.34 ± 0.045 |
| SAGGSAMTITEDGTLTLEIKVPEDAPEATVKVTVLTDGKTLGEADPATGKVTLKVPPDVEVKVEVASAGGSA [r15_180_TrMRF] | 1.09 ± 0.074 |
| SITIKIPLKPGYPYALRIHFYNPNGKPREMDMNVTRKPDGEVEIPIKIPDKDIPPGQDIRIQSIEIYPMKSA [r9_359_TrROS] | 1.5 ± 0.038 |
| SAGMMVKVEIEFPLTLTTTEKVGTGPNGIPVFETREEIVVITFRATVPENPEEVAAAKEEAKAVAEALSSAG [r14_223_JUSTAS] | 1.8 ± 0.042 |
| PLVLRLPDGAEAVRVEFFPERNTVVAFFRAPDRLLVVEVRFEPVGGGLLAPVRVRALPVPPTPEQLRLLAES [r1_154_TrMRF] | 1.35 ± 0.098 |
| SAGGSAGGSAKPNNAELVKVTYDPETGDFYAFYKIKNTDTVYVLRFNKDGTVEVKEYKFSEASAGGSAGGSA [r18_521_TrMRF] | 2.96 ± 0.21 |
| SAGGSAMTKEEAKEYAEKRVKEEHPGWTVLGVEVTELPGKEVLTKVTVKPPENPDKTLEFEFKFPLSAGGSA [r15_627_JUSTAS] | 2.34 ± 0.1 |
| SAGGSAGGSSVEVTEDPSTGKLTVTVPPDLTSVTIKEKDKTITIPLPPGASITLPSGTVTVALSAGGSAGGS [r20_26_JUSTAS] | 1.56 ± 0.059 |
| SAGGSAGGSAGGKIKILKKNKTKEEIKKELAEKYNVKKIEIKPIKGNTYLVEIEVEPEESAGGSAGGSAGGS [r10_1219_TrMRF] | -0.364 ± 0.24 |
| SAGGSAPVTLETEFFGENGLLVRTEAVVDPATGEVTVRTETFPVITGPADNPDVVKKLLEEAGIDASAGGSA [r2_304_TrMRF] | 0.645 ± 0.059 |
| SAGGSAMITVKLEGKPVTVEILSREPKGRLVKAQAVVHRPDDGTEKTVSGLLSEEEIEKAIEEALASAGGSA [r15_944_JUSTAS] | -0.917 ± 0.32 |
| SAGGSAGMPSVPVERTVTVTVVDAEGNLVGTVTLTLTFPGGVSEEEREAAIAAAIEAAVPPAGVVSSAGGSA [r15_310_JUSTAS] | 2.56 ± 0.077 |
| SAGGSANNPKPRIIEIPIQFDWPPGDPQQMRNLAETIADEFSDPGYRVEIDEFTPDYFMFNIKIEWSAGGSA [r15_563_TrROS] | 2.13 ± 0.1 |
| SAGGSAGGSAGMPPPVVVEPKRTSVVPESGLVIIPVTVFNPANGKATLTTYLYDPATGKLVLSAGGSAGGSA [r18_228_JUSTAS] | 0.734 ± 0.17 |
| SAGGSMISTLSESVDPAKNTTYYLNLYTEGSRAYGALVTVTTDPATGTKTITTKFPALPEVTTTETVASAGG [r13_615_JUSTAS] | 0.511 ± 0.026 |

Source: the supplement of paper PMC12764529
